The values that follow come from patent US12214052 (HOSPITAL FOR SICK CHILDREN, dated 2025).

Positions count from the first letter of the chain named.

T1: NANP 5-mer peptide (NANP5) (Plasmodium falciparum)
T1 peptide: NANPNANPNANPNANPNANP

B1: 1210 Fab (Fab, V domains shown)
VH: QVQLVESGGGVVQPGRSLRLSCAASGFTFSNYGMHWVRQAPGKGLEWVAVIWYDGSKKYYADSVKGRFTISRDNSKNTLYLQMNSLRAEDTAVYYCARVRDSSDYYGDAFDIWGQGTMVTVSS
VL: DIQMTQSPSTLSASVGDRVTITCRASQSISSWLAWYQQKPGKAPKLLIYKASNLESGVPLRFSGSGSGTEFTLTISSLQPDDFATYYCQQYNNYWTFGQGTKVEIK
B2: 1210_GL Fab (Fab, V domains shown)
VH: B1 VH with N31S, K57N
VL: not shown
B3: 1210_H.K56_Nrev_K.N93_Srev (1210_NS) Fab (Fab, V domains shown)
VH: B1 VH with K57N
VL: B1 VL with N93S
B4: 1210 H.D100Ymut_K.N92Ymut (1210_YY) Fab (Fab, V domains shown)
VH: B1 VH with D104Y
VL: B1 VL with N92Y

This test concerns the target T1, NANP 5-mer peptide (NANP5). In words: ITC. A general note: Isothermal titration calorimetry measures the heat released or taken up as one component is titrated into another.
Description: Calorimetric titration experiments were performed with an Auto-iTC200 instrument (Malvern) at 25° C. Proteins were dialyzed against 20 mM Tris pH 8.0 and 150 mM sodium chloride overnight at 4° C. […] Experiments were performed at least three times and the mean and standard error of the mean were reported (FIG. 30). The experimental data were analyzed according to a 1:1 binding model by means of Origin 7.0.
In the case of B1, the binding stoichiometry is approximately 2.

Turning to B2, the binding stoichiometry was approximately 2.

In the case of B3, the binding stoichiometry is approximately 2. B4 yielded a binding stoichiometry of approximately 2.
